Experimental data taken from PMC8443706, “Functionally diverse heteromeric traps for ligands of the transforming growth factor-β superfamily” (Scientific Reports, 2021).

T1: activin B (human, UniProt P09529 293-407)
T1 sequence (looked up): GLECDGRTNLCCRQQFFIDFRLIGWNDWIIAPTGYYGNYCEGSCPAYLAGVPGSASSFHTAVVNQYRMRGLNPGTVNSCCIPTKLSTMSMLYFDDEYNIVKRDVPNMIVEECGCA

T2: BMP9 (human, UniProt Q9UK05 320-429)
T2 sequence (looked up): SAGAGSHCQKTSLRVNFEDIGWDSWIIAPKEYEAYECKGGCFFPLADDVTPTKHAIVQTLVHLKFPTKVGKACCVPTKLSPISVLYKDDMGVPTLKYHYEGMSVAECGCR

T3: GDF11 (human, UniProt O95390 299-407)
T3 sequence (looked up): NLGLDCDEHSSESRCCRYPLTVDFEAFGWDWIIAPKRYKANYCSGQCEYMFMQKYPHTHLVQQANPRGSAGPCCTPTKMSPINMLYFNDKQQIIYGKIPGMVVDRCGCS

T4: activin A (human, UniProt P08476 311-426)
T4 sequence (looked up): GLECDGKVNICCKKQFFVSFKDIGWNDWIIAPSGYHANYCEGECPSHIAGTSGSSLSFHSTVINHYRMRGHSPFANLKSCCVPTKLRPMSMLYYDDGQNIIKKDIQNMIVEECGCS

T5: growth differentiation factor 8 (GDF8, or myostatin) (human, UniProt O14793 267-375)
T5 sequence (looked up): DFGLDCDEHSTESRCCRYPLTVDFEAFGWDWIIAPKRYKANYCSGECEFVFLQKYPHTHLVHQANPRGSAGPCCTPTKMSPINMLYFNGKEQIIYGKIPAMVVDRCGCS

T6: BMP10 (human, UniProt O95393 317-424)
T6 sequence (looked up): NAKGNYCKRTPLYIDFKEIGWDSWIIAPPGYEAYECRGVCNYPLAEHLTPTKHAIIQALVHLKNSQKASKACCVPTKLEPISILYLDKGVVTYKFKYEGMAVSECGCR

B1: IIB-Fc:ALK7-Fc heterodimer (human ActRIIB ECD-Fc paired with human ALK7 ECD-Fc) (Fc fusion)
chain 1: SGRGEAETRECIYYNANWELERTNQSGLERCEGEQDKRLHCYASWRNSSGTIELVKKGCWLDDFNCYDRQECVATEENPQVYFCCCEGNFCNERFTHLPEAGGPEVTYEPPPTAPT
chain 2: GLKCVCLLCDSSNFTCQTEGACWASVMLTNGKEQVIKSCVSLPELNAQVFCHSSNNVTKTECCFTDFCNNITLHLPTASPNAPKLGPME
B2: IIB-Fc:ALK3-Fc heterodimer (human ActRIIB ECD-Fc paired with human ALK3 ECD-Fc) (Fc fusion)
chain 1: B1 chain 1
chain 2: QNLDSMLHGTGMKSDSDQKKSENGVTLAPEDTLPFLKCYCSGHCPDDAINNTCITNGHCFAIIEEDDQGETTLASGCMKYEGSDFQCKDSPKAQLRRTIECCRTNLCNQYLQPTLPPVVIGPFFDGSIR
B3: IIB-Fc:ALK4-Fc heterodimer (human ActRIIB ECD-Fc paired with human ALK4 ECD-Fc) (Fc fusion)
chain 1: B1 chain 1
chain 2: SGPRGVQALLCACTSCLQANYTCETDGACMVSIFNLDGMEHHVRTCIPKVELVPAGKPFYCLSSEDLRNTHCCYTDYCNRIDLRVPSGHLKEPEHPSMWGPVE

How the values were obtained:
Assay in all cases: cell-based or functional assay
activin B = target: T1, activin B
BMP9 = target: T2, BMP9
GDF11 = target: T3, GDF11
activin A = target: T4, activin A
[1] = target: T5, growth differentiation factor 8 (GDF8, …)
BMP10 = target: T6, BMP10

| Binder | IC50 of the trap for inhibition of ligand-induced SMAD2/3 (CAGA12) luciferase reporter signalling in A204 cells (ligand with the cells' receptors) (activin B) [nM] | IC50 of the trap for inhibition of ligand-induced SMAD1/5/8 (BRE) luciferase reporter signalling in T98G cells (ligand with the cells' receptors) (BMP9) [nM] | IC50 of the trap for inhibition of ligand-induced SMAD2/3 (CAGA12) luciferase reporter signalling in A204 cells (ligand with the cells' receptors) (GDF11) [nM] | IC50 of the trap for inhibition of ligand-induced SMAD2/3 (CAGA12) luciferase reporter signalling in A204 cells (ligand with the cells' receptors) (activin A) [nM] | IC50 of the trap for inhibition of ligand-induced SMAD2/3 (CAGA12) luciferase reporter signalling in A204 cells (ligand with the cells' receptors) [1] [nM] | IC50 of the trap for inhibition of ligand-induced SMAD1/5/8 (BRE) luciferase reporter signalling in T98G cells (ligand with the cells' receptors) (BMP10) [nM] |
| --- | --- | --- | --- | --- | --- | --- |
| B1 | 0.26 | 31 | 2.34 | 2.86 | 9.15 | 2.01 |
| B2 | 1.65 | 23.4 | 2.42 | 2.62 | 10.8 | 1.1 |
| B3 | 0.16 | 8.47 | 0.34 | 0.19 | 2.04 | 0.7 |
